Experimental data published in patent US5789539, “Chemokine-like proteins and methods of use” (Repligen Corporation, dated 1998).
Positions count from the first letter of the chain named. Blank lines part the entries; values can stand above or below the binder they belong to.

Experiments:
[1] = target: T1, human neutrophil IL-8 receptor subtype B (huIL8Rb) (human, UniProt P25025); experiment: competition with 0.5 nM 125I-labeled IL-8 on CHO cells expressing huIL8Rb
Protocol: (§1) receptor subtype B (huIL8Rb), was used in binding assays to test mutant chemokine binding. Approximately 5×10^3 cells were plated in the wells of a 96 well plate and grown for 2 to 3 days. The medium was replaced with phosphate-buffered saline (PBS) supplemented with 0.5% BSA (PBS/BSA), 0.5 nM ^125I-labeled IL-8, and increasing concentrations of the various unlabeled chemokines. The plates were incubated on ice for 90 minutes, the binding mixture was removed, and the cells were washed three times with ice-cold PBS/BSA. The cells were removed from the plates with trypsin-EDTA (Gibco), and the radioactivity of the entire contents of the well determined by gamma counting. Binding of each chemokine to untransfected cells, or binding in the presence of 2 μM unlabeled IL-8, was determined and the value obtained used as the background value. Binding data was plotted as percent of mean specific binding (total binding minus background/specific binding with no competitor). […] "NC" indicates no competition.

[2] = target: T1, human neutrophil IL-8 receptor subtype …; experiment: competition with 0.5 nM 125I-labeled IL-8 on CHO cells expressing huIL8Rb; "NC" indicates no competition
Protocol: as §1

- Ki [1]: 52 nM
B1: PF4M2 (ligand)
chain: MSAKELRCQCVKTTSQVRPRHITSLEVIKAGPHCPTAQLIATLKNGRKICLDLQAPLYKKIIKKLLES

- binding result [2]: no binding
B2: wild-type platelet factor 4 (PF4) (ligand)
chain: EAEEDGDLQCLCVKTTSQVRPRHITSLEVIKAGPHCPTAQLIATLKNGRKICLDLQAPLYKKIIKKLLES

- Ki [1]: 839 nM
B3: PF4M1 (ligand)
chain: B2 chain with Q9R
